Data as given in US20030203373A1 (priority 2002, published 2003).

Biological target: T1, angiotensin-converting-enzyme derived from pig kidney (pig) (UniProt F1RRW5)
T1 sequence (looked up): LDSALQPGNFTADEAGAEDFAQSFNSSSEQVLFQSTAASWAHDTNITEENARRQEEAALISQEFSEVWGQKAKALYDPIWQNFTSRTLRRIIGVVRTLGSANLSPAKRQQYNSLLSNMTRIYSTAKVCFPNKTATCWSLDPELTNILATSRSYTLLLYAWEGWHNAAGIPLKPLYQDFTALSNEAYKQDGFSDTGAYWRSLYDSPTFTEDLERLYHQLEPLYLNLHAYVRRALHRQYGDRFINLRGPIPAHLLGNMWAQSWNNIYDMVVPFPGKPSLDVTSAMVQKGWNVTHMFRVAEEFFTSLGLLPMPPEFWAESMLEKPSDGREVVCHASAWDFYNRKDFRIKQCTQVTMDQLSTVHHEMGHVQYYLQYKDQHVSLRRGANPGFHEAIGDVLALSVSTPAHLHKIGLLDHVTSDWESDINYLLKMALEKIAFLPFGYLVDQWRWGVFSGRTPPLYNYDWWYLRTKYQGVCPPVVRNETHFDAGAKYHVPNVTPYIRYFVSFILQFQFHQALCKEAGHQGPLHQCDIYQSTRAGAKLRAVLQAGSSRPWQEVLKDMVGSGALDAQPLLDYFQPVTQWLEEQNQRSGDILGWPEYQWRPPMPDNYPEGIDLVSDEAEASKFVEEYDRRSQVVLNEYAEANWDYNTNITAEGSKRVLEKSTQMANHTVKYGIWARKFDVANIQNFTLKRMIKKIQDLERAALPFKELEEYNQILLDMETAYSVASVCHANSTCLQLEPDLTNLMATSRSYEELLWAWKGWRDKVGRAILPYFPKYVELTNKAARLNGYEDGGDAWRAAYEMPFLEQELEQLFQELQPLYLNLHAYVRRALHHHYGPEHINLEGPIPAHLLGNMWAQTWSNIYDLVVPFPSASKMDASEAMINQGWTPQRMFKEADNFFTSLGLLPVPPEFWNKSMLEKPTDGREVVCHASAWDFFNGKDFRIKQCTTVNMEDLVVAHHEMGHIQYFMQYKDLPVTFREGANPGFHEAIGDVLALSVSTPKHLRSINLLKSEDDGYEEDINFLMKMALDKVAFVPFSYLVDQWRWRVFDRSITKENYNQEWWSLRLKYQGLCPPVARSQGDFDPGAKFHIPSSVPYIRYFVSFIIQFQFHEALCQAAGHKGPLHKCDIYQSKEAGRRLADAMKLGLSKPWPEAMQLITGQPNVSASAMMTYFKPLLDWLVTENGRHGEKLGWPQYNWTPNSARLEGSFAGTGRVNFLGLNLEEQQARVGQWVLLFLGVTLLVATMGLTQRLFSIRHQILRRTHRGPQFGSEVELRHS
Assay: cell-based or functional assay

Peptid S547 (SPLPEVPP) (peptide)
% inhibition at 0.39 µM, A: 10.2%
% inhibition at 0.39 µM, B: 6.82%
% inhibition at 0.39 µM, C: 6.02%
% inhibition at 0.39 µM, D: 0.575%
% inhibition at 0.78125 µM, A: 9.62%
% inhibition at 0.78125 µM, B: 10%
% inhibition at 0.78125 µM, C: 7.72%
% inhibition at 0.78125 µM, D: 10.8%
% inhibition at 1.5625 µM, A: 13.4%
% inhibition at 1.5625 µM, B: 14.9%
% inhibition at 1.5625 µM, C: 9.3%
% inhibition at 1.5625 µM, D: 12.9%
% inhibition at 3.125 µM, A: 21.8%
% inhibition at 3.125 µM, B: 18%
% inhibition at 3.125 µM, C: 16%
% inhibition at 3.125 µM, D: 11.6%
% inhibition at 6.25 µM, A: 31.4%
% inhibition at 6.25 µM, B: 29.2%
% inhibition at 6.25 µM, C: 28%
% inhibition at 6.25 µM, D: 25.7%
% inhibition at 12.5 µM, A: 36.6%
% inhibition at 12.5 µM, B: 36.5%
% inhibition at 12.5 µM, C: 35.3%
% inhibition at 12.5 µM, D: 34.5%
% inhibition at 25 µM, A: 52%
% inhibition at 25 µM, B: 46.2%
% inhibition at 25 µM, C: 49.3%
% inhibition at 50 µM, A: 67.1%
% inhibition at 50 µM, B: 65%
% inhibition at 50 µM, C: 63.6%
% inhibition at 50 µM, D: 56%
% inhibition at 100 µM, A: 79.8%
% inhibition at 100 µM, B: 78.4%
% inhibition at 100 µM, C: 78.4%
% inhibition at 100 µM, D: 78%
% inhibition at 200 µM, A: 89.6%
% inhibition at 200 µM, B: 89.4%
% inhibition at 200 µM, C: 88.5%
% inhibition at 200 µM, D: 88.6%
fluorescence at 0.39 µM, A: 934000
fluorescence at 0.39 µM, B: 969000
fluorescence at 0.39 µM, C: 977000
fluorescence at 0.39 µM, D: 1.03e+06
fluorescence at 0.78125 µM, A: 940000
fluorescence at 0.78125 µM, B: 935000
fluorescence at 0.78125 µM, C: 959000
fluorescence at 0.78125 µM, D: 928000
fluorescence at 1.5625 µM, A: 900000
fluorescence at 1.5625 µM, B: 885000
fluorescence at 1.5625 µM, C: 943000
fluorescence at 1.5625 µM, D: 906000
fluorescence at 3.125 µM, A: 814000
fluorescence at 3.125 µM, B: 853000
fluorescence at 3.125 µM, C: 874000
fluorescence at 3.125 µM, D: 919000
fluorescence at 6.25 µM, A: 715000
fluorescence at 6.25 µM, B: 737000
fluorescence at 6.25 µM, C: 750000
fluorescence at 6.25 µM, D: 773000
fluorescence at 12.5 µM, A: 661000
fluorescence at 12.5 µM, B: 662000
fluorescence at 12.5 µM, C: 674000
fluorescence at 12.5 µM, D: 683000
fluorescence at 25 µM, A: 502000
fluorescence at 25 µM, B: 562000
fluorescence at 25 µM, C: 530000
fluorescence at 25 µM, D: 560000
fluorescence at 50 µM, A: 346000
fluorescence at 50 µM, B: 367000
fluorescence at 50 µM, C: 382000
fluorescence at 50 µM, D: 460000
fluorescence at 100 µM, A: 214000
fluorescence at 100 µM, B: 229000
fluorescence at 100 µM, C: 229000
fluorescence at 100 µM, D: 233000
fluorescence at 200 µM, A: 113000
fluorescence at 200 µM, B: 116000
fluorescence at 200 µM, C: 125000
fluorescence at 200 µM, D: 124000
